From paper PMC4445678 (Structure (London, England : 1993), 2010)
Read-outs that look alike come from different tables or passages of the source. One block for each molecule: values may come before it.

Columns and labels:
CBX7 cbox (Homo sapiens) = CBX7 cbox (Homo sapiens) (UniProt O95931); details: cited from earlier work
C-RING1B 223–333 N306D [1] = target: T1, C-RING1B 223–333 N306D (human, UniProt Q99496 223-333, N306D); experiment: crystal structure
T1 sequence (looked up): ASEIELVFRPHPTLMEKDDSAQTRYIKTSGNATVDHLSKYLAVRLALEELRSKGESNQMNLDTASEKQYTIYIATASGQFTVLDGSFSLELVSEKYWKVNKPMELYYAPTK

[2] = target: T2, C-RING1B (C-terminal domain of RING1B), wild-type (human, UniProt Q99496 222-336); experiment: SPR
T2 sequence (looked up): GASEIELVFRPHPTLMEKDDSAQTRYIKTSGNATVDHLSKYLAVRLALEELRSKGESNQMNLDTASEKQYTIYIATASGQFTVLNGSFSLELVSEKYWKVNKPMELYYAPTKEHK

C-RING1B 223–333 N306D [3] = target: T1, C-RING1B 223–333 N306D; experiment: crystal structure; remark: listed apart in the source
[4] = target: T2, C-RING1B (C-terminal domain of RING1B), …; experiment: AUC

Molecule: RING1B C-RING1B (from UniProt Q99496)
Kd (CBX7 cbox (Homo sapiens)): 9.2 nM

Molecule: RPRLKNVDRSTAQQLAVTVGNVTVIITDFKEKTRS (domain or fragment, human, UniProt Q8N488 145-179, looked up) [MBP-RYBP 145–179]
Kd [2]: 90 nM

Continued, values first:

binding result (C-RING1B 223–333 N306D [1]): binds
Molecule: EVTVTDITANSITVTFREAQAAEGFFRDRS (domain or fragment, human, UniProt O95931 219-248, looked up) [cbx7 219–248]

binding result (C-RING1B 223–333 N306D [3]): binds
Molecule: RPRLKNVDRSTAQQLAVTVGNVTVIITDFKEKTRS (domain or fragment, human, UniProt Q8N488 145-179, looked up) [RYBP 145–179]

stoichiometry N [4]: 1
B1: RYBP 145–198 (domain or fragment, human, UniProt Q8N488 145-198, looked up)
chain: RPRLKNVDRSTAQQLAVTVGNVTVIITDFKEKTRSSSTSSSTVTSSAGSEQQNQ

Kd [2]: 100 nM
B2: MBP-RYBP 145–198 (domain or fragment, human, UniProt Q8N488 145-198, looked up)
chain: B1 chain
